Data: patent publication US20200317768A1 (published 2020)
Each block holds one binder with its values, some of them ahead of it.

Legend:
[1] = target: T1, human FcγRIIb constitutively expressed on MDCK cells (human, UniProt P31994 43-310); assay: cell-based or functional assay
T1 sequence (looked up): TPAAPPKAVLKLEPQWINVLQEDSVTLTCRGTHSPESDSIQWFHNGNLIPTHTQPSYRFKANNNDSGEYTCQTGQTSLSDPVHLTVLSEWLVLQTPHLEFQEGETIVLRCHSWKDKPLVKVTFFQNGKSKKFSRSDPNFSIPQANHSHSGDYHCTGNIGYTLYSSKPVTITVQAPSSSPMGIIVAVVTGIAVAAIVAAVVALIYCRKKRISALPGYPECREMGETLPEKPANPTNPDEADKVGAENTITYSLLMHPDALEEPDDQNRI

[2] = target: T2, cynomolgus monkey FcγRIIIaS extracellular domain, C-terminal His-tag (cynomolgus monkey, UniProt Q8SPW2 21-206 at identity 1.00)); assay: SPR (BIACORE) 25C, antibody captured, FcgR as analyte
T2 construct: also called cyno FcγRIIIaS; FcgRIIIaS
T2 chain: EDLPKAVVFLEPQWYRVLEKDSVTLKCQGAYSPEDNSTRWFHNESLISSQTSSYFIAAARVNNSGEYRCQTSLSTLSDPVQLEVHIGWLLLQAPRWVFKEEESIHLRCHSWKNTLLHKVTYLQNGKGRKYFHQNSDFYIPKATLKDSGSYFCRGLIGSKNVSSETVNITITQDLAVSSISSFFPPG
Procedure: (§1) The kinetic analysis of interactions between these antibodies and FcγR was carried out using BIACORE® T200 or BIACORE® 4000 (GE Healthcare). HBS-EP+ (GE Healthcare) was used as the running buffer, and the measurement temperature was set to 25° C. A chip produced by immobilizing Protein A. Protein A/G or mouse anti-human IgG kappa light chain (BD Biosciences) onto a Series S Sensor Chip CM4 or CM5 (GE Healthcare) by the amine-coupling method was used. […] After the measurement, the antibody captured on the chip was washed off by allowing reaction with 10 mM glycine-HCl, pH1.5 and 25 mM NaOH so that the chip was regenerated and used repeatedly. The sensorgrams obtained as measurement results were analyzed by the 1:1 Langmuir binding model using the BIACORE® Evaluation Software to calculate the binding rate constant ka (L/mol/s) and dissociation rate constant kd (l/s), and the dissociation constant KD (mol/L) was calculated from these values. […] Regarding such interactions, KD values were calculated using the following 1:1 binding model described in BIACORE® T100 Software Handbook BR1006-48 Edition AE.

[3] = target: T3, human FcγRIIaH extracellular domain, C-terminal His-tag (human, UniProt P12318 34-217); assay: as above
T3 construct: also called human FcγRIIa (type H); FcgRIIaH
T3 sequence: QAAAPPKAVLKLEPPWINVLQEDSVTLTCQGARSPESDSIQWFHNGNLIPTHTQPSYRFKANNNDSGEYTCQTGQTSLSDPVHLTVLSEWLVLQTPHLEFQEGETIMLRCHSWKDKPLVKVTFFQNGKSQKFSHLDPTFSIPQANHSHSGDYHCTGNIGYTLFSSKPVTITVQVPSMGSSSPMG
Procedure: as §1

[4] = target: T4, human FcγRIIaR extracellular domain with C-terminal His-tag (human, UniProt P12318 34-217); assay: SPR (BIACORE); KD of SG1 / KD of variant;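 further: relative to parent M103205H795-SG1 carrying the SG1 human heavy chain constant region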
T4 construct: also called human FcgRIIaR; FcγRIIa (type R)
T4 chain: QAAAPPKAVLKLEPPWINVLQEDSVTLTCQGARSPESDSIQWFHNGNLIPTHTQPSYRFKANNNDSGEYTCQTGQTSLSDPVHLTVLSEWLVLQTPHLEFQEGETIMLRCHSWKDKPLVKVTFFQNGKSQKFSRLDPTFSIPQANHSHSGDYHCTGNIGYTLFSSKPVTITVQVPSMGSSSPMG
Procedure: as §1
(§2) The behavior of interacting molecules according to the 1:1 binding model on BIACORE® can be described by Equation 1: Req=C·R max/(KD+C)+RI, wherein, Req is a plot of steady-state binding levels to analyte concentration. C is concentration, RI is bulk refractive index contribution in the sample, and Rmax is analyte binding capacity of the surface. When this equation is rearranged, KD can be expressed as Equation 2: KD=C·Rmax/(Req−RI)−C. KD can be calculated by substituting the values of Rmax, RI, and C into Equation 1 or Equation 2. From the current measurement conditions, RI=0, C=2 μmol/L can be used.

[5] = target: T5, cynomolgus monkey FcγRIIa3 extracellular domain with C-terminal His-tag (cynomolgus monkey); assay: SPR (BIACORE); KD of SG1 / KD of variant;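 further: relative to parent M103205H795-SG1 carrying the SG1 human heavy chain constant region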
T5 construct: also called cyno FcgRIIa3; cynoFcγRIIa3
T5 chain: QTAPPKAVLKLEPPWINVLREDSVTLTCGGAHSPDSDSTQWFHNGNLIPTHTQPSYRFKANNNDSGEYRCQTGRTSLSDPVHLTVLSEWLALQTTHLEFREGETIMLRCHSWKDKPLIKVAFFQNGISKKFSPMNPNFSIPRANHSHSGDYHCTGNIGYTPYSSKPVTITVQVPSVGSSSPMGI
Procedure: as §1, §2

[6] = target: T6, cynomolgus monkey FcγRIIIaS extracellular domain with C-terminal His-tag (cynomolgus monkey, UniProt Q8SPW2 21-206 at identity 1.00)); assay: SPR (BIACORE); KD of SG1 / KD of variant;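 further: relative to parent M103205H795-SG1 carrying the SG1 human heavy chain constant region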
T6 construct: also called cyno FcgRIIIaS; cynoFcγRIIIaS
T6 chain: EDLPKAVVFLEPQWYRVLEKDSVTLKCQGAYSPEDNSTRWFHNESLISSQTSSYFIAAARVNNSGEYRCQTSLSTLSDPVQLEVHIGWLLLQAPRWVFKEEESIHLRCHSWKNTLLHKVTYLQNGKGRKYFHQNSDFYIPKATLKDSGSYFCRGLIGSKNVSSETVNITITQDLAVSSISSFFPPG
Procedure: as §1, §2

[7] = target: T7, human FcγRIIaH extracellular domain with C-terminal His-tag (human, UniProt P12318 34-217); assay: SPR (BIACORE); KD of SG1 / KD of variant;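 further: relative to parent M103205H795-SG1 carrying the SG1 human heavy chain constant region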
T7 construct: also called human FcgRIIaH; FcγRIIa (type H)
T7 sequence: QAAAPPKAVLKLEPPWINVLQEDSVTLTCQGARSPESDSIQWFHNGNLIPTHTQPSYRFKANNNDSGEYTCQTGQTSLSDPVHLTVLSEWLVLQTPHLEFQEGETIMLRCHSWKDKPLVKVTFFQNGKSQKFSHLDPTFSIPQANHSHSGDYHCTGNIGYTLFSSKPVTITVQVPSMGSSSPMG
Procedure: as §1, §2

[8] = target: T8, cynomolgus monkey FcγRIIb extracellular domain with C-terminal His-tag (cynomolgus monkey); assay: SPR (BIACORE); KD of SG1 / KD of variant
T8 construct: also called cyno FcgRIIb; cynoFcγRIIb
T8 chain: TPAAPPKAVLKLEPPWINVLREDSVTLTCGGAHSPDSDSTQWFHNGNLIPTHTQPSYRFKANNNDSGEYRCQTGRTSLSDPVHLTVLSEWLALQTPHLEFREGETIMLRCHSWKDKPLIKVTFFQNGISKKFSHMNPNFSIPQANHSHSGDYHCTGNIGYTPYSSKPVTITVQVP
Procedure: as §1, §2

celluar uptake [1]: 1 relative to SG1 (=1.00)
B1: MS1032LO06-SG1 (M103205H795-SG1/M103202L889-SK1) (antibody, human IgG1, kappa)
heavy: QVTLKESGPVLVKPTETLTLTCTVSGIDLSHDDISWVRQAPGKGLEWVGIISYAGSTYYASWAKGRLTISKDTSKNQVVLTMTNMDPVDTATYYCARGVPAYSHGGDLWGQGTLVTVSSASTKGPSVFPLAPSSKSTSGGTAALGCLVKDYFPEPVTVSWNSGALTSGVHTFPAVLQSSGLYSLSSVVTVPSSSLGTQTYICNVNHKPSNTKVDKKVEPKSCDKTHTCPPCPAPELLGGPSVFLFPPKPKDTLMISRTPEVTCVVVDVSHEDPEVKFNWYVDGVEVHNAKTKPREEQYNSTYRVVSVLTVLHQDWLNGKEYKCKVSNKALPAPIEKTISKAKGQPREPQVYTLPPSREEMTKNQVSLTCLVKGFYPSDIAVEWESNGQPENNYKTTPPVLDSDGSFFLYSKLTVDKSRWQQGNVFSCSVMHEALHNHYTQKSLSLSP
light: DIVMTQSPATLSLSPGERATLSCTSSQSVYHANWLSWFQQKPGQPPKLLIYWASTLAYGVPSRFSGSGSGTDFTLTISSLQPEDAATYYCAGGYGGGRYAFGQGTKVEIKRTVAAPSVFIFPPSDEQLKSGTASVVCLLNNFYPREAKVQWKVDNALQSGNSQESVTEQDSKDSTYSLSSTLTLSKADYEKHKVYACEVTHQGLSSPVTKSFNRGEC
notes: Anti-latent myostatin antibody

Kd [2]: 420 nM
Kd [3]: 930 nM
B2: MS_M103205H795-SG1/M103202L889-SK1 (antibody, human IgG1, kappa)
heavy: not shown
light: DIVMTQSPATLSLSPGERATLSCTSSQSVYHANWLSWFQQKPGQPPKLLIYWASTLAYGVPSRFSGSGSGTDFTLTISSLQPEDAATYYCAGGYGGGRYAFGQGTKVEIKRTVAAPSVFIFPPSDEQLKSGTASVVCLLNNFYPREAKVQWKVDNALQSGNSQESVTEQDSKDSTYSLSSTLTLSKADYEKHKVYACEVTHQGLSSPVTKSFNRGEC
notes: also called MS1032LO06-SG1

KD fold (SG1 = 1) [4]: 1 fold
KD fold (SG1 = 1) [5]: 1 fold
KD fold (SG1 = 1) [6]: 1 fold
KD fold (SG1 = 1) [7]: 1 fold
KD fold (SG1 = 1) [8]: 1 fold
B3: MS_M103205H795-SG1/M103202L889-SK1 (antibody, human IgG1, kappa)
heavy: not shown
light: DIVMTQSPATLSLSPGERATLSCTSSQSVYHANWLSWFQQKPGQPPKLLIYWASTLAYGVPSRFSGSGSGTDFTLTISSLQPEDAATYYCAGGYGGGRYAFGQGTKVEIKRTVAAPSVFIFPPSDEQLKSGTASVVCLLNNFYPREAKVQWKVDNALQSGNSQESVTEQDSKDSTYSLSSTLTLSKADYEKHKVYACEVTHQGLSSPVTKSFNRGEC
notes: Parent antibody of the Fc variants; also called MS1032LO06-SG1
